Our source for the Kd, stoichiometry N and L-cysteine desulfurase activity of IscS (methylene blue assay) after addition of TusA values is publication PMC11302665.

Assay [1] has as its target L-cysteine desulfurase IscS (E. coli) (UniProt P0A6B7). Put plainly: native MS; ~8 µM IscS (~4 µM dimeric IscS) titrated with increasing TusA in 250 mM ammonium acetate, pH 8.0; fractional intensities fitted to a sequential binding model (Dynafit).
The target of assay [2] is IscS (Escherichia coli) (UniProt P0A6B7). The assay is described as follows: native mass spectrometry. As to conditions: cited from earlier work.
Assay [3] has as its target R220/223/225E triple variant of IscS (E. coli) (UniProt P0A6B7). Put plainly: native MS; ESI-MS under non-denaturing conditions of IscS alone, 250 mM ammonium acetate, pH 8.0.
The target of assay [4] is L-cysteine desulfurase IscS (E. coli) (UniProt P0A6B7).

What is called Kd is a measure of binding affinity in units of concentration. “TusA C56A variant (from UniProt P0A890 1-81) (natural protein)” yielded a Kd in assay [1] of 8 µM.

IscU (from UniProt P0ACD4): the Kd in assay [2] was 3 µM. For “TusA C19S variant (from UniProt P0A890 1-81) (natural protein)”, in assay [1], the Kd was found to be 8 µM. One may read the stoichiometry N as the number of molecules, sites or subunits per partner or assembly. In turn, “R220/223/225E triple variant of IscS (from UniProt P0A6B7 1-404) (enzyme)” showed a stoichiometry N in assay [3] of 2. In assay [4], “TusA (from UniProt P0A890 1-81) (natural protein)” returned a L-cysteine desulfurase activity of IscS (methylene blue assay) after addition of TusA of 3 fold. Further, the Kd in assay [1] amounted to 8 µM.
